Assay results: ChEMBL document CHEMBL2074234, “Functional expression of the canalicular bile salt export pump of human liver” (Gastroenterology, 2002)

Experiments:
Assay type in all cases: functional, cell membranes, Membrane vesicle
[1] = substrate: C[C@H](CCC(=O)NCCS(=O)(=O)O)[C@H]1CC[C@H]2[C@@H]3[C@H](O)C[C@@H]4C[C@H](O)CC[C@]4(C)[C@H]3CC[C@]12C; experiment: (§1) TP_TRANSPORTER: uptake in membrane vesicles isolated from Bsep-expressing Sf9 cells
[2] = substrate: C[C@H](CCC(=O)NCC(=O)O)[C@H]1CC[C@H]2[C@@H]3[C@H](O)C[C@@H]4C[C@H](O)CC[C@]4(C)[C@H]3C[C@H](O)[C@]12C; experiment: as §1
[3] = substrate: C[C@H](CCC(=O)NCCS(=O)(=O)O)[C@H]1CC[C@H]2[C@@H]3[C@@H](O)C[C@@H]4C[C@H](O)CC[C@]4(C)[C@H]3CC[C@]12C; experiment: as §1

B1: Bile salt export pump (Homo sapiens) (protein)
chain: MSDSVILRSIKKFGEENDGFESDKSYNNDKKSRLQDEKKGDGVRVGFFQLFRFSSSTDIWLMFVGSLCAFLHGIAQPGVLLIFGTMTDVFIDYDVELQELQIPGKACVNNTIVWTNSSLNQNMTNGTRCGLLNIESEMIKFASYYAGIAVAVLITGYIQICFWVIAAARQIQKMRKFYFRRIMRMEIGWFDCNSVGELNTRFSDDINKINDAIADQMALFIQRMTSTICGFLLGFFRGWKLTLVIISVSPLIGIGAATIGLSVSKFTDYELKAYAKAGVVADEVISSMRTVAAFGGEKREVERYEKNLVFAQRWGIRKGIVMGFFTGFVWCLIFLCYALAFWYGSTLVLDEGEYTPGTLVQIFLSVIVGALNLGNASPCLEAFATGRAAATSIFETIDRKPIIDCMSEDGYKLDRIKGEIEFHNVTFHYPSRPEVKILNDLNMVIKPGEMTALVGPSGAGKSTALQLIQRFYDPCEGMVTVDGHDIRSLNIQWLRDQIGIVEQEPVLFSTTIAENIRYGREDATMEDIVQAAKEANAYNFIMDLPQQFDTLVGEGGGQMSGGQKQRVAIARALIRNPKILLLDMATSALDNESEAMVQEVLSKIQHGHTIISVAHRLSTVRAADTIIGFEHGTAVERGTHEELLERKGVYFTLVTLQSQGNQALNEEDIKDATEDDMLARTFSRGSYQDSLRASIRQRSKSQLSYLVHEPPLAVVDHKSTYEEDRKDKDIPVQEEVEPAPVRRILKFSAPEWPYMLVGSVGAAVNGTVTPLYAFLFSQILGTFSIPDKEEQRSQINGVCLLFVAMGCVSLFTQFLQGYAFAKSGELLTKRLRKFGFRAMLGQDIAWFDDLRNSPGALTTRLATDASQVQGAAGSQIGMIVNSFTNVTVAMIIAFSFSWKLSLVILCFFPFLALSGATQTRMLTGFASRDKQALEMVGQITNEALSNIRTVAGIGKERRFIEALETELEKPFKTAIQKANIYGFCFAFAQCIMFIANSASYRYGGYLISNEGLHFSYVFRVISAVVLSATALGRAFSYTPSYAKAKISAARFFQLLDRQPPISVYNTAGEKWDNFQGKIDFVDCKFTYPSRPDSQVLNGLSVSISPGQTLAFVGSSGCGKSTSIQLLERFYDPDQGKVMIDGHDSKKVNVQFLRSNIGIVSQEPVLFACSIMDNIKYGDNTKEIPMERVIAAAKQAQLHDFVMSLPEKYETNVGSQGSQLSRGEKQRIAIARAIVRDPKILLLDEATSALDTESEKTVQVALDKAREGRTCIVIAHRLSTIQNADIIAVMAQGVVIEKGTHEELMAQKGAYYKLVTTGSPIS
Km [1]: 4.8 µM | Km [2]: 11.1 µM | Km [3]: 11.9 µM
